Earlier results as cited in patent publication US8765467B2, “Multicellular compositions of pluripotent human embryonic stem cells and cancer cells” (Technion Research and Development Foundation Ltd., priority 2003, dated 2014).

Legend:
[1] = tested on: tumors; settings: tumors grown in immunocompromised mice; literature (Folkman 2002)
[2] = tested on: human B-lineage acute lymphoblastic leukemia (B-ALL); settings: human B-ALL engrafted within marrow of immunodeficient mice; literature (Eisterer et al 2002)

B1: Endostatin (protein, UniProt P39060 1572-1754, looked up)
Endostatin: HSHRDFQPVLHLVALNSPLSGGMRGIRGADFQCFQQARAVGLAGTFRAFLSSRLQDLYSIVRRADRAAVPIVNLKDELLFPSWEALFSGSEGPLKPGARIFSFDGKDVLRHPTWPQKSVWHGSDPNGRRLTESYCETWRTEAPSATGQASSLLGGRLLGQSAASCHHAYIVLCIENSFMTASK
modifications: Endostatin
notes: antiangiogenic agent cited from the literature
In the case of B1, the anti-angiogenic activity [1] is given as “potent anti-angiogenic agent” and the inhibitory effect [2] is given as “did not exhibit any inhibitory effect”.
